# According to the DeepSol protein solubility set:
# Assay: soluble on expression in E. coli; label from the status in PepcDB or PDB records
row,Sequence,soluble on expression in E. coli
1,ATMTLTDANFQQAIQGDGPVLVDFWAAWCGPCRMMAPVLEEFAEAHADKVTVAKLNVDENPETTSQFGIMSIPTLILFKGGEPVKQLIGYQPKEQLEAQLADVLQ,soluble
2,QNFLNDQFVIDSIVSAINPQKGQAMVEIGPGLAALTEPVGERLDQLTVIELDRDLAARLQTHPFLGPKLTIYQQDAMTFNFGELAEKMGQPLRVFGNLPYNISTPLMFHLFSYTDAIADMHFMLQKEVVNRLVAGPNSKAYGRLSVMAQYYCNVIPVLEVPPSAFTPPPKVDSAVVRLVPHATMPHPVKDVRVLSRITTEAFNQRRKTIRNSLGNLFSVEVLTGMGIDPAMRAENISVAQYCQMANYLAENA,soluble
3,MATKTKTTEAPVLPLNQILAGDCIETMRSLPECSVDLIFADPPYNLQLRGDLHRPDNSRVDAVDDHWDQFSSFSVYDQFTREWLAAARRLLKPNGAIWVIGSYHNIFRVGAALQDQGFWILNDVVWRKSNPMPNFKGKRLTNAHETLIWASKQEASKYTFNYEALKALNEGVQMRSDWVIPICTGHERLKDEQGDKAHPTQKPEALLHRVMVATTNPGDVVLDPFFGTGTTGAVAKMLGRDFIGIEREESYRRIAAERLSRVRRYDASALEVSGSKRAEPRVPFGQLVERGMLRPGEELYSMNNRHKAKVRADGTLIGNDVKGSIHQVGAALEGAPSCNGWTYWCYKREGKMIPIDILRQQIRAEMEDPRPN,not soluble
4,MGSDKIHHHHHHMRHAYRQFGPGTLYTVRLLRALDYLWRHLDEPLLLDRLAEEACFSRFHFHRLYRNLMGETVMESRQRMLLHRAAGELGRADRPLASVAVRAGFSSSAAFIRAFAGRYGETPGRYRQRRLMFLNQRERTMRQVEIVERDAVKVLMRHHRGPYMEIGKAFDALRAVQGPQQGVGAPSRSFGLYLDDQAQTPAADCRSIACATVPAFMEGKAMDGFEWGSIPAGRYAAVLHTGPYSELGECWDWLYRHWLPASGEMPGDTPCVEEYLNAPYDTPPAELKTLLLLSLA,not soluble
5,MYELTEDFKLRKITKYELDGIDEREDLLVIPPSSKAGPCGNACLFCYLLQNPPEMIYKVPRHDTLNDPDLENRIRYARKHYDLWIRVTDTSGNIKFDENRIKSLYDAGLDEIQISVHTTKKDVRARLMRNRQAGKLIDLLPLVAKHFRTIADIILTPGFNVEDIGEIIEDLDSMGVHEVRLFPVGVTRYNKFGVRPLTREELSYVKGIALEKDKELAIKVVIPPIFLALLGEFTTGLEPFDIEPDFPTYIFTGELAYQEMKRLFPRVNVIMVKNEFFGGNIGSAGLLTGRDILREVEKLPEVDLGLIILPELMFYGDMTLDGWRRQELFSKILIEKGYIVETALEPTEIPRVIEKVTL,not soluble
6,GPGSMIPGLPPAFDVECNRMEDVFASVKSRTVGKDGNLLSPEESWVQRELQYYENLYTEQQELTVCLVTFNVACKKPPANLAALISLKMAEDTNRPVDLIMVSLQEVDMSASAMLKEETEASTPWVVGLHAAVGADSRSPSNTPYFAFPPKQLVGLLLCVYLRRQLLPYMQEMSVATVATGALGSMGNKGAIGLRLVLHRTSLCLINVHLAAGQSNVVKT,not soluble
7,MGEVQREKVAVIIGPTAVGKTKLSIDLAKALNGEIISGDSMQIYRTMDIGTAKVTKAEMDGIPHYMIDIKNPEDSFSVAEFQERVRKHIREITERGKLPIIVGGTGLYIQSVLFDYQFTDDAGDVIYREQREKLALERGVEYVHEKLQEVDPESAERIHANNVRRVIRALEIFHTTGEKMSEQIEKQEKELLYDVSLIGLTMDREMLYDRINLRVDLMMEQGLLEEVEGLYNRGIRDCQSIQAIGYKEIYDYFENRASLEDAVSQLKTNSRRYAKRQLTWFRNKMDVTWFDVTDGEKTSEILRYIEGKLQVKSNNSKLEHHHHHH,soluble
8,DITERHAREQKLREERAVIQQALDALDEPLFVTDIDGRLKHCNHRALELTGNTEETAVGTPITALFPDEERETIADAVDDALRTGRTTITASLCLDSGQQQRYEFRAHSLTDLDNNTAGLVILGQDVS,not soluble
